The test system of series [1] is FtsA self-interaction. Nature of the series: FRET (acceptor photobleaching) self-interaction of FtsA on supported lipid bilayers. The format is binding, E. coli. The source says: To directly measure FtsA self-interaction in our fluorescence microscopy experiments, we established a FRET (Förster resonance energy transfer)-based assay using FtsA labelled with either Cy5 (acceptor) or Cy3 (donor). […] We then decided to use this approach to measure the degree of FtsA self-interaction on supported lipid membranes by quantifying the increase in donor fluorescence after photobleaching the acceptor fluorophore[30]–[32] (Fig. 3c–e and Fig. S3d). […] As a negative control, we also attached the Hexahistidine-SUMO-tag (His-SUMO) labelled with Cy5 and Cy3 to membranes with an increasing density of Tris-NTA lipids.
Equimolar concentrations of Cy3- and Cy5-labelled FtsA, supplemented with 20% unlabelled FtsA were used to study FRET and FRAP. Five pre-bleach frames were acquired, followed by acceptor photobleaching of a rectangular ROI with 40% 641 nm laser power and a dwell size of 1 µs/pixel, 75% overlapping lines. The recovery of the signal or the increase in donor intensity were measured with either two frames or one frame per second.
(§1) Bleaching the acceptor dye leads to an increase in the donor intensity, which can be used to quantify the Foerster Resonance energy transfer (FRET)[48]. FRET efficiency was quantified with E%=Ipost/Ipost+Ipre⋅100 , where Ipost is the intensity of the […] and Ipre is the […]. […] To extract the contribution of both processes, we adjusted a routine recently published by Gerganova et al.[33]. In short, the code provides the contribution of both modes of recovery by analysing the shape of the fluorescence recovery profile. […] Contribution of diffusion leads to a change of the slope of the outer borders of the bleached region (S4h right). Thus, by measuring the change of the slope of the border recovery, diffusion and simple on/off binding can be distinguished. We developed “FRAPdiff”, a graphical user interface, which uses the original fit routine by David Rutkowski. It can be used directly on.tiff movies with annotated bleach regions as ImageJ ROIs. In addition, we added optional bleach correction, user selectable projection axis (x or y), and optional mirroring of the recovery profiles, if bleaching was not symmetric. The original fit routine for estimating the recovery and diffusion dynamics can be found at https://github.com/davidmrutkowski/1DReflectingDiffusion. FRAPdiff is available at 10.5281/zenodo.6400639[49] under the GPLv3 open-source license.

Series [2] is described as follows: Diffusion coefficient of His-tagged FtsAs and His-SUMO on Tris-NTA membranes (FRAP). The settings on record: without FtsZ. As for the experimental part:
(§2) To study colocalization of His-tagged variants of FtsA, 0.5–1 µM of Cy5 labelled His-tagged FtsAs were added to the chamber, incubated for 20 min and washed 6x with reaction buffer. […] To control the density of membrane-bound FtsA, SUVs without and with Tris-NTA lipids were mixed to obtain the respective Tris-NTA concentrations. To perform FRET/FRAP experiments, equimolar concentrations of Cy3 and Cy5 labelled His-tagged FtsAs (total 0.5–1 µM) or His-SUMO-Cys were added to a chamber and treated as above. […] FRAP experiments were performed as described before.
as §1

The subject of series [3] is FtsA self-interaction. Nature of the series: FRET self-interaction of His-tagged FtsAs (and His-SUMO control) on Tris-NTA membranes. The format is binding, E. coli. The settings on record: without FtsZ. As for the experimental part:
as §2, §1

Series [4] concerns the molecule itself. Nature of the series: FRET or BRET; acceptor photobleaching; equimolar Cy3- and Cy5-labelled His-tagged protein (total 0.5-1 µM, washed) attached to bilayers with varied Tris-NTA lipid density. (Bioluminescence resonance energy transfer reports proximity on the nanometre scale.)

`Nc1ncnc2c1ncn2[C@@H]1O[C@H](CO[P@](=O)(O)O[P@](=O)(O)O[P@@](=O)(O)S)[C@@H](O)[C@H]1O` [ATPγS, reference compound]: the “effect of replacing ATP with ATPγS on membrane-binding, self-interaction or membrane-binding dynamics” value in the series with FtsA self-interaction [1] is listed as “no significant effect”.

B1: His6-SUMO (protein, UniProt Q12306 2-98, looked up)
Ubiquitin-like protein SMT3: SDSEVNQEAKPEVKPEVKPETHINLKVSDGSSEIFFKIKKTTPLRRLMEAFAKRQGKEMDSLRFLYDGIRIQADQTPEDLDMEDNDIIEAHREQIGG
modifications: His6 tag
With B1, the “Diffusion Coefficient” value in series [2] (0.1% Tris NTA, replicate Exp1) is 0.47 µm2/s; in series [2] (0.1% Tris NTA, replicate Exp2), 0.69 µm2/s; in series [2] (0.4% Tris NTA, replicate Exp1), 0.55 µm2/s; in series [2] (0.4% Tris NTA, replicate Exp2), 0.53 µm2/s; in series [2] (0.4% Tris NTA, replicate Exp3) it was 0.48 µm2/s; in series [2] (0.6% Tris NTA, replicate Exp1), 0.58 µm2/s. Further, the “Diffusion Coefficient” value in series [2] (0.6% Tris NTA, replicate Exp2) is on record as 0.54 µm2/s; in series [2] (0.6% Tris NTA, replicate Exp3), 0.58 µm2/s; in series [2] (0.6% Tris NTA, replicate Exp4), 0.63 µm2/s; in series [2] (0.8% Tris NTA, mean) it was 0.52 µm2/s; in series [2] (0.8% Tris NTA, replicate Exp1), 0.56 µm2/s; in series [2] (0.8% Tris NTA, replicate Exp2) it was 0.53 µm2/s. In addition, the “Diffusion Coefficient” value was determined as 0.48 µm2/s in series [2] (0.8% Tris NTA, replicate Exp3); 0.52 µm2/s in series [2] (0.8% Tris NTA, replicate Exp4); 0.57 µm2/s in series [2] (1% Tris NTA, mean); 0.45 µm2/s in series [2] (1% Tris NTA, replicate Exp1); 0.57 µm2/s in series [2] (1% Tris NTA, replicate Exp2); 0.66 µm2/s in series [2] (1% Tris NTA, replicate Exp3). The “Diffusion Coefficient” value was 0.60 µm2/s in series [2] (1% Tris NTA, replicate Exp4); 0.57 µm2/s in series [2] (1% Tris NTA, replicate Exp5); 0.68 µm2/s in series [2] (1% Tris NTA, replicate Exp6); 0.62 µm2/s in series [2] (1% Tris NTA, replicate Exp7); 0.43 µm2/s in series [2] (1% Tris NTA, replicate Exp8); 0.58 µm2/s in series [2] (Tris 0.10 %). The Diffusion Coefficient in series [2] (Tris 0.40 %) turned out to be 0.52 µm2/s; in series [2] (Tris 0.60 %), 0.58 µm2/s; in series [2] (Tris 0.80 %), 0.52 µm2/s; in series [2] (Tris 1.00 %), 0.57 µm2/s; in series [2] (Tris 2.00 %) it was 0.58 µm2/s; in series [2] (Tris […]), 0.56 µm2/s. For the same molecule, the “Diffusion Coefficient” value in series [2] ([…] Tris NTA, mean (n: WT 2, R286W 3, SUMO 3)) amounted to 0.56 µm2/s; in series [2] ([…] Tris NTA, replicate Exp1), 0.47 µm2/s; in series [2] ([…] Tris NTA, replicate Exp2) it was 0.67 µm2/s; in series [2] ([…] Tris NTA, replicate Exp3), 0.53 µm2/s. The FRET efficiency with FtsA self-interaction [3] (0.1% Tris NTA, Exp1) amounted to 1.02%; with FtsA self-interaction [3] (0.1% Tris NTA, Exp2), 1.41%; in the series with FtsA self-interaction [3] (0.1% Tris NTA, mean, n = 2) it was 1.21%; in the series on FtsA self-interaction [3] (0.4% Tris NTA, Exp1) it was 1.31%; in the series with FtsA self-interaction [3] (0.4% Tris NTA, Exp2), 1.55%; in the series with FtsA self-interaction [3] (0.4% Tris NTA, Mean, n = 2), 1.43%. Also, the FRET efficiency was 0.86% with FtsA self-interaction [3] (0.6% Tris NTA, Exp1); 0.95% with FtsA self-interaction [3] (0.6% Tris NTA, Exp2); 0.91% with FtsA self-interaction [3] (0.6% Tris NTA, Mean, n = 3 (His6-SUMO n = 2)); 0.27% in the series with FtsA self-interaction [3] (0.8% Tris NTA, Exp1); 0.30% with FtsA self-interaction [3] (0.8% Tris NTA, Exp2); 0.29% with FtsA self-interaction [3] (0.8% Tris NTA, Mean, n = 3 (His6-SUMO n = 2)). In addition, the FRET efficiency is 0.57% in the series on FtsA self-interaction [3] (1% Tris NTA, Exp1); 0.59% in the series on FtsA self-interaction [3] (1% Tris NTA, Exp2); 0.56% in the series with FtsA self-interaction [3] (1% Tris NTA, Exp3); 0.57% with FtsA self-interaction [3] (1% Tris NTA, Mean, n = 3 (R286W-His6 n = 4)); 0.56% with FtsA self-interaction [3] (2% Tris NTA, Exp1); 0.41% in the series with FtsA self-interaction [3] (2% Tris NTA, Exp2). The FRET efficiency was 0.49% with FtsA self-interaction [3] (2% Tris NTA, Mean, n = 2); 1.43% in the series with FtsA self-interaction [3] (Tris 0.40 %, mean); 0.91% with FtsA self-interaction [3] (Tris 0.60 %, mean); 0.28% in the series on FtsA self-interaction [3] (Tris 0.80 %, mean); 0.57% with FtsA self-interaction [3] (Tris 1.00 %, mean); 0.49% in the series with FtsA self-interaction [3] (Tris 2.00 %, mean). The FRET efficiency in the series on FtsA self-interaction [3] ([…] Tris NTA, Exp1) came out at 1.47%; in the series with FtsA self-interaction [3] ([…] Tris NTA, Exp2), 1.00%; with FtsA self-interaction [3] ([…] Tris NTA, mean, n = 2) it was 1.23%.

B2: FtsA WT (1-405)-6xHis (domain or fragment, E. coli, UniProt P0ABH0 1-405, looked up)
chain: MIKATDRKLVVGLEIGTAKVAALVGEVLPDGMVNIIGVGSCPSRGMDKGGVNDLESVVKCVQRAIDQAELMADCQISSVYLALSGKHISCQNEIGMVPISEEEVTQEDVENVVHTAKSVRVRDEHRVLHVIPQEYAIDYQEGIKNPVGLSGVRMQAKVHLITCHNDMAKNIVKAVERCGLKVDQLIFAGLASSYSVLTEDERELGVCVVDIGGGTMDIAVYTGGALRHTKVIPYAGNVVTSDIAYAFGTPPSDAEAIKVRHGCALGSIVGKDESVEVPSVGGRPPRSLQRQTLAEVIEPRYTELLNLVNEEILQLQEKLRQQGVKHHLAAGIVLTGGAAQIEGLAACAQRVFHTQVRIGAPLNITGLTDYAQEPYYSTAVGLLHYGKESHLNGEAEVEKRVTASV
modifications: Cy3 or Cy5 at the N-terminus in the labelled form (sortagging as for native FtsA)
notes: FtsA, E. coli, residues 1-405; plasmid pNB4; Attached to membranes through Tris-NTA lipids by its His tag; also called FtsA-His6; FtsA WT-His6; source: E. coli BL21, purified (as native FtsA); not shown: TwinStrep-SUMO, N-terminal, cleaved; 5xGlycine tag, N-terminal, kept; His6, C-terminal, kept
With B2, the binding result in series [4] is reported as “binds”.

The record behind these values is PMC9098913, “In vitro reconstitution of Escherichia coli divisome activation” (Nature Communications, 2022).
